Assay results from patent US10500249B2, “Compositions and methods for preventing or treating diseases, conditions, or processes characterized by aberrant fibroblast proliferation and extracellular matrix deposition” (MOERAE MATRIX, INC., priority 2014, dated 2019).

Legend:
Assay in all cases: Kinase Profiling Assay
Type in all cases: biochemical
Conditions in all cases: 100 μM
[1] = molecular target: AMPKα1 (h) (Homo sapiens, UniProt Q13131)
Method in brief: (§1)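 Each kinase activity was measured in duplicate. Phosphorylation of a positively charged substrate with radiolabeled phosphate from ATP was captured on a negatively charged filter, counted by scintillation and expressed relative to a 100% activity control. MK2 inhibitory peptides were screened for specificity across 266 human kinases.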

[2] = molecular target: T1, CDK7/cyclinH/MAT1 (h) (Homo sapiens, UniProt P50613)
T1 construct: purchased Millipore
Method in brief: as §1

[3] = molecular target: EphA5 (h) (Homo sapiens, UniProt P54756)
Method in brief: as §1

[4] = molecular target: EphA7 (h) (Homo sapiens, UniProt Q15375)
Method in brief: as §1

[5] = molecular target: T2, GRK7 (h) (Homo sapiens, UniProt Q8WTQ7)
T2 construct: purchased Millipore
T2 sequence (Q8WTQ7 1-553): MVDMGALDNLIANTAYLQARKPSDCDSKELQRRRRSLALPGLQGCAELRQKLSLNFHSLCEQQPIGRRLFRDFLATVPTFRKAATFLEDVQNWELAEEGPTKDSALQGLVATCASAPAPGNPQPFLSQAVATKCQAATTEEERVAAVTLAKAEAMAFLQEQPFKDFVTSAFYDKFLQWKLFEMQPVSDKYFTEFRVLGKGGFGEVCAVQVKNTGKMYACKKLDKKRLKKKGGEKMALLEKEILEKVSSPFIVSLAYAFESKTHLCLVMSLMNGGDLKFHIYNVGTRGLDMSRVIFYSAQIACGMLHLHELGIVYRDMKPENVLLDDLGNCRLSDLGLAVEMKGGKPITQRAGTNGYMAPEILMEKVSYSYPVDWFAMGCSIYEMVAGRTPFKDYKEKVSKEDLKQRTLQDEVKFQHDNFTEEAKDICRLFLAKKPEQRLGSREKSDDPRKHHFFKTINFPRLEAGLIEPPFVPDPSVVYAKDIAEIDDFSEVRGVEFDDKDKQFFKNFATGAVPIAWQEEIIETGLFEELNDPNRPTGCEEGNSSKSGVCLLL
Method in brief: as §1

[6] = molecular target: T3, GSK3β (h) (Homo sapiens, UniProt P49841)
T3 construct: purchased Millipore
Method in brief: as §1

[7] = molecular target: MAPKAP-K2 (h) (Homo sapiens, UniProt P49137)
Method in brief: as §1

[8] = molecular target: T4, MST2 (h) (Homo sapiens, UniProt Q13188)
T4 construct: purchased Millipore
T4 sequence (Q13188 1-491): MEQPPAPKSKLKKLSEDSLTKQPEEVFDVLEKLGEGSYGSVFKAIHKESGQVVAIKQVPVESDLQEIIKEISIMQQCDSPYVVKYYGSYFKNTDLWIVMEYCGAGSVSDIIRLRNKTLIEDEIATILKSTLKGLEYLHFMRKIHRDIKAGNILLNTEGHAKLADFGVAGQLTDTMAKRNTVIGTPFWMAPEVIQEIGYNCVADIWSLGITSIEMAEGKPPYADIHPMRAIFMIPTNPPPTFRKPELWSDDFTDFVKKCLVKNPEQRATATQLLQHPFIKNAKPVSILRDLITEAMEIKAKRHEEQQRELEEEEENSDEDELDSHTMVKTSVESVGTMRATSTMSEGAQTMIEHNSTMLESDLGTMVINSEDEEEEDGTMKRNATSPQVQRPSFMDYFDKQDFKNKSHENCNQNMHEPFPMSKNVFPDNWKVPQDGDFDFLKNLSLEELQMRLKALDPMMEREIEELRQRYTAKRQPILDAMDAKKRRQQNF
Method in brief: as §1

[9] = molecular target: T5, NEK2 (h) (Homo sapiens, UniProt P51955)
T5 construct: purchased Millipore
T5 sequence (P51955 1-445): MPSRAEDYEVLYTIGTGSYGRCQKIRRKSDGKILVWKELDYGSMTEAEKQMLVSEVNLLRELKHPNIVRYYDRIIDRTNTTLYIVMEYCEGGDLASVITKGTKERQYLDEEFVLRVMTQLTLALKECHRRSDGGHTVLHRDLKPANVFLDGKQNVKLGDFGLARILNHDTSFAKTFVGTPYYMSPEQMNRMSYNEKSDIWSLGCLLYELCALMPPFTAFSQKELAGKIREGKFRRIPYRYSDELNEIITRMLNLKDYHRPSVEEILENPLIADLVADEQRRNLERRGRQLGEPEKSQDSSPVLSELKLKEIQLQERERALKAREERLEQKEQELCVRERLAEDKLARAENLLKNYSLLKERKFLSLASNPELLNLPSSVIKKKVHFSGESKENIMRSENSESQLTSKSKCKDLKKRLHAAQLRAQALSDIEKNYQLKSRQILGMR
Method in brief: as §1

[10] = molecular target: T6, SGK3 (h) (Homo sapiens, UniProt Q96BR1)
T6 sequence (Q96BR1 1-496): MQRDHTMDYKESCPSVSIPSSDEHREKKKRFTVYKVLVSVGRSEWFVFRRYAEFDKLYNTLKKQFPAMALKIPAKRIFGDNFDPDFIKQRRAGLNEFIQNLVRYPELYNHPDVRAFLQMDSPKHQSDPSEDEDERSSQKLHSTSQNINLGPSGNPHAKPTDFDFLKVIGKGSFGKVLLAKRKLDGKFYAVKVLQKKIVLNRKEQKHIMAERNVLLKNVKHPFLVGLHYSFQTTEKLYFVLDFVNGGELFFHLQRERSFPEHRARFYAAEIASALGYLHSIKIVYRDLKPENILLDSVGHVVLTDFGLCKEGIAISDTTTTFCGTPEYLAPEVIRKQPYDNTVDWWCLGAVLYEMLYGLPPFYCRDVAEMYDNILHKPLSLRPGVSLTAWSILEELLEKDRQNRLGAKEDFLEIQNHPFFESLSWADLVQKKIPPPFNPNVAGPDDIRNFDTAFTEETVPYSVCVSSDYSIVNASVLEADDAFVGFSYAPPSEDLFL
Method in brief: as §1

[11] = molecular target: Tie2(Y897S) (h) (Homo sapiens, UniProt Q02763, Y897S)
Method in brief: as §1

[12] = molecular target: SRPK2 (h) (Homo sapiens, UniProt P78362)
Method in brief: as §1

Sequence of SRPK2 (h) (P78362 whole entry): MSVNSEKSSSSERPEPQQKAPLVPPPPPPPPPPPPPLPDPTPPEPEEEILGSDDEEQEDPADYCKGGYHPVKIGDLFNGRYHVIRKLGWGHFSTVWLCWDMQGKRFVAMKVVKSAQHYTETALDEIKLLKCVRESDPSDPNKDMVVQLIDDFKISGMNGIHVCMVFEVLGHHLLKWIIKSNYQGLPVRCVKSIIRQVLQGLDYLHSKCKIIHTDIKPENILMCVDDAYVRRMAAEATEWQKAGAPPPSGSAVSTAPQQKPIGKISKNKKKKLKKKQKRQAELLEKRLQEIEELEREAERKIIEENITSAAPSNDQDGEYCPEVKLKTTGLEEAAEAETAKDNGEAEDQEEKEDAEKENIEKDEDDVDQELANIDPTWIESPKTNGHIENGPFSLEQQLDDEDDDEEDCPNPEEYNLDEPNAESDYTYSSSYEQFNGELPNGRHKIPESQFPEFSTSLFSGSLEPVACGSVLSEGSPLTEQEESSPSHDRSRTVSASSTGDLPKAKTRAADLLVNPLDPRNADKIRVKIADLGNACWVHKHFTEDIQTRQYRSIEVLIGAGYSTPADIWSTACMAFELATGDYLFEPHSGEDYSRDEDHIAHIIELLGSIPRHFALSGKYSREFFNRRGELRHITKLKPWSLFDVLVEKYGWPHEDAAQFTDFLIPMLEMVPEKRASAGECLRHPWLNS
Sequence of EphA7 (h) (Q15375 28-998): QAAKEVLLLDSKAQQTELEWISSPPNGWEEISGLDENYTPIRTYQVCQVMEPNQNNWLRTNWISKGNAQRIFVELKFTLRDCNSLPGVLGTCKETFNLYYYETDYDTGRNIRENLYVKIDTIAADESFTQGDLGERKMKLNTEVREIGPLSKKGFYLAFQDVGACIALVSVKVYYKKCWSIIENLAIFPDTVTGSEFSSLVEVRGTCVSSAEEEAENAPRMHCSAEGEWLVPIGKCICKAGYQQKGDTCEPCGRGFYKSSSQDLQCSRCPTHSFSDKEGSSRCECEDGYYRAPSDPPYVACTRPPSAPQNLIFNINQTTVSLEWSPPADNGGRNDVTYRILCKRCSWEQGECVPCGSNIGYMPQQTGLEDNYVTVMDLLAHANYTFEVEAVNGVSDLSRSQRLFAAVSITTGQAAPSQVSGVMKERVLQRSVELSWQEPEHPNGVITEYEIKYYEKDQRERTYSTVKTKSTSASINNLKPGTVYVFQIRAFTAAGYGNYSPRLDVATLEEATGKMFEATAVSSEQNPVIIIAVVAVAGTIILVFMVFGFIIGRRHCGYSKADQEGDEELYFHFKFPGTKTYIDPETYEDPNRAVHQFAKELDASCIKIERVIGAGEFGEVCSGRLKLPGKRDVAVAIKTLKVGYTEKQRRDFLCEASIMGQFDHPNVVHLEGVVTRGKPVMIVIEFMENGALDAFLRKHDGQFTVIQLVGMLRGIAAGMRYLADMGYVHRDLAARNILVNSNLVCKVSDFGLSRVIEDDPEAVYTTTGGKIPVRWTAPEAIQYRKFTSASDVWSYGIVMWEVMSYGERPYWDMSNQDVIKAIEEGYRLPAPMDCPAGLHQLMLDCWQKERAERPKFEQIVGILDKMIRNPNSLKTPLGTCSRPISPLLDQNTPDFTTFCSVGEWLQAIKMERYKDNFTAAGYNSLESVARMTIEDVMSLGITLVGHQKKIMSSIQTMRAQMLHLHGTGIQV
T1 sequence (P50613 whole entry): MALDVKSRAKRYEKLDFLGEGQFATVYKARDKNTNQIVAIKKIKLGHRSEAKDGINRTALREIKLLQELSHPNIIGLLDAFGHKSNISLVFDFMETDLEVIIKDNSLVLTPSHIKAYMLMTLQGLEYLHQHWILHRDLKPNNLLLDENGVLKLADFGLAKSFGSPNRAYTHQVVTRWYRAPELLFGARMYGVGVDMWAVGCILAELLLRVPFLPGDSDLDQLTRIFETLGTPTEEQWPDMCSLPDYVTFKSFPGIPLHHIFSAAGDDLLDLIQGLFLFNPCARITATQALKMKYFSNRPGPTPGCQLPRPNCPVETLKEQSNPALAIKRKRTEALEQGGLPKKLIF
T1 sequence (P51946 whole entry partner): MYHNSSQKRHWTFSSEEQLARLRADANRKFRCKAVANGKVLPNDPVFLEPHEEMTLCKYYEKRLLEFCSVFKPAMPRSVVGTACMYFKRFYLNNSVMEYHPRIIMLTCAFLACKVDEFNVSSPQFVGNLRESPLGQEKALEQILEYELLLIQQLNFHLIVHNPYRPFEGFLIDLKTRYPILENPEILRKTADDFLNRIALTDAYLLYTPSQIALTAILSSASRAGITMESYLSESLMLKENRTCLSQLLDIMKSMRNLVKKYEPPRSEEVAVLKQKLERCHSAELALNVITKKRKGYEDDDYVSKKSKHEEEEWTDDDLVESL
T1 sequence (P51948 whole entry partner): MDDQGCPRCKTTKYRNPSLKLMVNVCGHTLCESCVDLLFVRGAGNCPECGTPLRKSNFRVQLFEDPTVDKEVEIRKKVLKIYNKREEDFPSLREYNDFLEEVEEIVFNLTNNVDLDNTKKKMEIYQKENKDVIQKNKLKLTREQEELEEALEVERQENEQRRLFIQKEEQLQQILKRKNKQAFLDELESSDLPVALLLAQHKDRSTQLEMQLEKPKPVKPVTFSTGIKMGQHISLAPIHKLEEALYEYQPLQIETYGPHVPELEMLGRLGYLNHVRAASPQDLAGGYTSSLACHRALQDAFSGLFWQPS
Sequence of EphA5 (h) (P54756 25-1037): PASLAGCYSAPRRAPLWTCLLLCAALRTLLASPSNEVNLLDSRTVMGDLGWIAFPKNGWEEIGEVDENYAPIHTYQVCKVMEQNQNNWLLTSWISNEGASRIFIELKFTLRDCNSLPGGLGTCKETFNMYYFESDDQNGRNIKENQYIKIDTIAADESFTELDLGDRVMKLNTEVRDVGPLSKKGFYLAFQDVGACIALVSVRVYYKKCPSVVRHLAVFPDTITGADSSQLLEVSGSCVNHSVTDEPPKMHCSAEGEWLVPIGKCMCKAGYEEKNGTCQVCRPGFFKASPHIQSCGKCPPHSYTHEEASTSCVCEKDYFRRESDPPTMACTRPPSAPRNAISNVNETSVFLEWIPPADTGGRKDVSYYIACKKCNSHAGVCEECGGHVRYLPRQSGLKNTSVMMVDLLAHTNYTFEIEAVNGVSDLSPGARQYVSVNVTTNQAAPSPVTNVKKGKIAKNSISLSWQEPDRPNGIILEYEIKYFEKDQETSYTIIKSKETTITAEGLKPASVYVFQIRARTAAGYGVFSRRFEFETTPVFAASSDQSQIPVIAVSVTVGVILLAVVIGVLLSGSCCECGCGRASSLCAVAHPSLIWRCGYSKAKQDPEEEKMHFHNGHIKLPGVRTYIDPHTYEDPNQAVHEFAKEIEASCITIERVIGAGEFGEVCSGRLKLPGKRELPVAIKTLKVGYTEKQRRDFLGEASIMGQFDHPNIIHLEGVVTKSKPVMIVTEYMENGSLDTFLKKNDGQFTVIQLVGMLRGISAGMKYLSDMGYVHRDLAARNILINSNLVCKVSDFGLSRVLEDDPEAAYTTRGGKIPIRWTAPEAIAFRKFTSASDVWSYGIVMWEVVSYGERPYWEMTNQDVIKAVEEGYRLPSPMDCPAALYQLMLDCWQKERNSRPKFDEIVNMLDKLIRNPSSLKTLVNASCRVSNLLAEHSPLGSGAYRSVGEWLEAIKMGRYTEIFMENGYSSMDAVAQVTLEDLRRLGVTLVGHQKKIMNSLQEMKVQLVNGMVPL
T3 sequence (P49841 whole entry): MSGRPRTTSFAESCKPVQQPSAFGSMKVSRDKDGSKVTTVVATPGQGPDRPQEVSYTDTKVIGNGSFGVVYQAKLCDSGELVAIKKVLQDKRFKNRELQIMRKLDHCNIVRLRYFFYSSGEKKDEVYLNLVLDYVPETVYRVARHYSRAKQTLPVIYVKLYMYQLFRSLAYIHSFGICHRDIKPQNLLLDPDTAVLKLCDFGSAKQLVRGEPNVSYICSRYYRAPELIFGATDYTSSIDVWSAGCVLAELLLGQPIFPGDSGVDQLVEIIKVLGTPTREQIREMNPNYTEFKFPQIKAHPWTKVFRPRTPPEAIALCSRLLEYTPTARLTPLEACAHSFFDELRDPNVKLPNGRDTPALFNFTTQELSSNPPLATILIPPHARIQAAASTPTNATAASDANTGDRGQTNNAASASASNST
Sequence of MAPKAP-K2 (h) (P49137 whole entry): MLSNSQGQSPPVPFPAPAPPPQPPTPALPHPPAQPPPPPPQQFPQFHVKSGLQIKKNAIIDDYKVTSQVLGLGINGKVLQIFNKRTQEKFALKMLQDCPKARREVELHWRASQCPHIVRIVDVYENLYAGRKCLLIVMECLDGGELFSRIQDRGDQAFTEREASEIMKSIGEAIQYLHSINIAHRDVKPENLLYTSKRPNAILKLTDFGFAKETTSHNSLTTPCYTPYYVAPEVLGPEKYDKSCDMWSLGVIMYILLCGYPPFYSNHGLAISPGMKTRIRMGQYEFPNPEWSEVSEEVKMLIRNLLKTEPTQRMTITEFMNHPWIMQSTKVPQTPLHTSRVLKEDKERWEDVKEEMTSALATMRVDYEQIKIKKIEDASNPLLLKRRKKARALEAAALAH

Row | Sequence | % activity [1] | % activity [2] | % activity [3] | % activity [4] | % activity [5] | % activity [6] | % activity [7] | % activity [8] | % activity [9] | % activity [10] | % activity [11] | % activity [12]
1 | FAKLAARLYRKALARQLGVAA [MMI-0300] | 71% | 65% | 18% | 159% | 122% | 205% | 5% | 19% | 78% | 10% | 83% | –
2 | HRRIKAWLKKIKALARQLGVAA (Mammalian) [MMI-0500] | 35% | 15% | 42% | 189% | 93% | 238% | 9% | 2% | 0% | −3% | 80% | 80%
3 | KAFAKLAARLYRKALARQLGVAA [MMI-0400] | 87% | 47% | 24% | 222% | 100% | 202% | 5% | 11% | 61% | 8% | 87% | 97%
4 | YARAAARQARAKALNRQLGVA (Mammalian) [MMI-0200] | 108% | 67% | 123% | 220% | 124% | 132% | 35% | – | 97% | 58% | 85% | 100%
